Experimental data reported in patent US20040214258A1.

Biological target: hR.Luc-connector-DhaA.H272F-Flag fusion protein with covalently bound biotin-C18H32O4-Cl substrate (Rhodococcus rhodochrous) (UniProt P0A3G2)
Experiment: capture on SA-coated 96-well plate through tethered biotin; captured luciferase activity measured

Substance: streptavidin (SA) coated on a solid support (from UniProt P22629 37-163)
- efficiency of capturing (% of Renilla luciferase activity added to the plate): > 50%
